The record followed here is patent US20200055920A1 (published 2020).

Read-outs that look alike come from different tables or passages of the source.

What all share (test): Biacore SPR; receptor-Fc captured by anti-Fc antibody, ligand injected
Experiment [1] has as its target T1, BMP10 (UniProt O95393 317-424).
T1 sequence (looked up): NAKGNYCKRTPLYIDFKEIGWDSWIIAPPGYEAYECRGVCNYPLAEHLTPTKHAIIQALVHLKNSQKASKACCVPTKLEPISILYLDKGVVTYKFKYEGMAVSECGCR

The target in the next experiment is T2, BMP9 (UniProt Q9UK05 320-429).
T2 construct: also called GDF2
T2 sequence (looked up): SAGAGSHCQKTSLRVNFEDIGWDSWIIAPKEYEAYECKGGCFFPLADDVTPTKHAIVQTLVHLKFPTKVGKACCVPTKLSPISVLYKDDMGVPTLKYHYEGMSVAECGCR
The protocol:
(§1) Ligands were injected and allowed to flow over the captured receptor protein.

For the next experiment, the target named is T3, BMP5 (UniProt P22003 317-454, limits assumed).
T3 sequence (looked up): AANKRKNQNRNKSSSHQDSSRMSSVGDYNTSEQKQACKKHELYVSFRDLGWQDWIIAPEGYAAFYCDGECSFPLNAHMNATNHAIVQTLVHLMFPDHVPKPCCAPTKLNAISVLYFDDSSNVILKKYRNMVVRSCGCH

In another experiment the target is T4, GDF11 (UniProt O95390 299-407).
T4 construct: also called BMP11
T4 sequence (looked up): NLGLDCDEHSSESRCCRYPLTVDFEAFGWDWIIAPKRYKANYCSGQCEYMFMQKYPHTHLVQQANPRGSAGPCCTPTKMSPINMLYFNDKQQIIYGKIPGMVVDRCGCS
As for the experimental part: as §1

The next experiment addresses T5, GDF8 (UniProt O14793 267-375).
T5 construct: also called myostatin; growth and differentiation factor-8
T5 sequence (looked up): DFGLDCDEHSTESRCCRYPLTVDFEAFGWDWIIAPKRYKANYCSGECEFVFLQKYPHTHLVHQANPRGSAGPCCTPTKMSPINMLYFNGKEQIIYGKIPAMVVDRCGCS
As for the experimental part:
as §1

In another experiment the target is T6, Activin B (UniProt P09529 293-407).
T6 construct: also called βBβB
T6 sequence (looked up): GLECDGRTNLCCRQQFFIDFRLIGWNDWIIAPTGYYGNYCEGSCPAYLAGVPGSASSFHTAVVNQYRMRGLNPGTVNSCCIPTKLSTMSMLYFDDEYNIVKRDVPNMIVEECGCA
As for the experimental part:
as §1

The next experiment has as its target T7, Activin A (UniProt P08476 311-426).
T7 construct: also called βAβA
T7 sequence (looked up): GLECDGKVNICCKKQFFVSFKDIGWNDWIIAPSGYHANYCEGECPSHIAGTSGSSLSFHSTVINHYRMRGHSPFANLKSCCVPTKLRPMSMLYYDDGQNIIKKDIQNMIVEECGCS
The protocol: as §1

Experiment [2] has as its target T8, BMP6 (UniProt P22004 382-513, limits assumed).
T8 sequence (looked up): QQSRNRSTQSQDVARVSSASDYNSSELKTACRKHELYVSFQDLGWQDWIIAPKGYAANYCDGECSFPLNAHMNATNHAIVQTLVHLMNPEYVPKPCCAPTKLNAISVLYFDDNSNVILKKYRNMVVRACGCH

In the next experiment the target is T9, GDF3 (UniProt Q9NR23 251-364).
T9 construct: also called VGR2
T9 sequence (looked up): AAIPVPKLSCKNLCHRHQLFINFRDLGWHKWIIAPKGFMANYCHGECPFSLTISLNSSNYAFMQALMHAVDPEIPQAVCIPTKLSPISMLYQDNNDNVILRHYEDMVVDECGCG
As for the experimental part: as §1

The next experiment concerns the target BMP2 (UniProt P12643 283-396).
A further experiment addresses T10, BMP7 (UniProt P18075 293-431).
T10 construct: also called osteogenic protein-1; OP-1
T10 sequence (looked up): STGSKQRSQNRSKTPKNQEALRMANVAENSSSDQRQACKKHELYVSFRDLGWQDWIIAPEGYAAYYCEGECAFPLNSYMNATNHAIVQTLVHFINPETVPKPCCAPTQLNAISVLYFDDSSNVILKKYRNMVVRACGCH

The next experiment addresses T11, GDF6 (UniProt Q6KF10 336-455, limits assumed).
T11 construct: also called BMP13
T11 sequence (looked up): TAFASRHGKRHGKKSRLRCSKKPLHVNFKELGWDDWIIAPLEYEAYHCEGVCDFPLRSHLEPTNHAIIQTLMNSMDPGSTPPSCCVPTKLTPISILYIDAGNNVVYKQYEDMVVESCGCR
As for the experimental part:
as §1

A further experiment addresses T12, BMP15 (UniProt O95972 268-392).
T12 construct: also called GDF9b
T12 sequence (looked up): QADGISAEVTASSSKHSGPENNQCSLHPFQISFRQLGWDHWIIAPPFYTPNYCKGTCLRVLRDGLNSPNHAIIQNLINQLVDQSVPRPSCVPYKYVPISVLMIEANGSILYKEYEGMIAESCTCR
The protocol:
A Biacore™-based binding assay was used to compare ligand binding selectivity of the single-arm BMPRII-Fc heterodimeric complex described above with that of an BMPRII-Fc homodimeric complex. The single-arm BMPRII-Fc and homodimeric BMPRII-Fc were independently captured onto the system using an anti-Fc antibody. Ligands were injected and allowed to flow over the captured receptor protein.

In experiment [3] the target is T1, BMP10. As for the experimental part:
as §1
The source holds these as a separate data set.

Experiment [4] addresses T8, BMP6. As for the experimental part: as §1
This is another data set of the same source.

Chain of BMP2 (P12643 283-396 limits assumed): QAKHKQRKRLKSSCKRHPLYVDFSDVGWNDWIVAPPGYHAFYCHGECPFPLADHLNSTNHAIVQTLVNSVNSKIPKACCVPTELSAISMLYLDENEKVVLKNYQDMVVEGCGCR

ALK1-Fc homodimer (Fc fusion): in the experiment with BMP10 [1], the Kd (as a rule, a measure of binding affinity in units of concentration) amounted to 0.006 nM; the koff (commonly a measure of how fast the partners let go of each other) turned out to be 0.00011 s⁻¹; the kon (commonly the rate constant with which the complex forms) is 1.7e+07 M⁻¹ s⁻¹. In the experiment with BMP9, this molecule came in with a Kd of 0.016 nM, a koff of 0.00013 s⁻¹ and a kon of 7.9e+06 M⁻¹ s⁻¹.

Consider ActRIIA-Fc homodimer (Fc fusion), for which the Kd worked out at 0.086 nM in the experiment with BMP10 [1]; 1.1 nM in the experiment with BMP5; 0.028 nM with GDF11; 0.099 nM in the experiment with GDF8; 0.025 nM in the experiment with Activin B; 0.045 nM with Activin A. Moreover, the off-rate constant (koff) stood at 0.0025 s⁻¹ with BMP10 [1]; 0.0045 s⁻¹ with BMP5; 0.00072 s⁻¹ with GDF11; 0.0014 s⁻¹ with GDF8; 0.0002 s⁻¹ with Activin B; 0.00062 s⁻¹ with Activin A. For the same molecule, the kon with BMP10 [1] worked out at 2.9e+07 M⁻¹ s⁻¹; with BMP5, 4e+06 M⁻¹ s⁻¹; in the experiment with GDF11, 2.6e+07 M⁻¹ s⁻¹; in the experiment with GDF8, 1.4e+07 M⁻¹ s⁻¹; in the experiment with Activin B, 7.9e+06 M⁻¹ s⁻¹; in the experiment with Activin A, 1.4e+07 M⁻¹ s⁻¹.

Turning to ActRIIB-Fc homodimer (Fc fusion), the dissociation constant Kd with BMP10 [1] amounted to 0.011 nM; with BMP6 [2], 0.21 nM; in the experiment with GDF11, 0.002 nM; in the experiment with GDF8, 0.28 nM; with GDF3, 1.5 nM; with BMP9, 0.078 nM. In addition, the dissociation constant Kd in the experiment with Activin B came out at 0.02 nM; with Activin A, 0.019 nM. For the same molecule, the dissociation rate constant (koff) with BMP10 [1] came out at 0.00026 s⁻¹; in the experiment with BMP6 [2] it was 0.0068 s⁻¹; with GDF11, 0.00011 s⁻¹; with GDF8, 0.00023 s⁻¹; with GDF3 it was 0.0022 s⁻¹; with BMP9, 0.0011 s⁻¹. For the same molecule, the values for the off-rate (koff) in the experiment with Activin B and with Activin A were 0.0001 s⁻¹ and 0.00023 s⁻¹, respectively. Also, the kon with BMP10 [1] came out at 2.3e+07 M⁻¹ s⁻¹; in the experiment with BMP6 [2] it was 3.2e+07 M⁻¹ s⁻¹; with GDF11, 5e+07 M⁻¹ s⁻¹; with GDF8, 830000 M⁻¹ s⁻¹; in the experiment with GDF3, 1.4e+06 M⁻¹ s⁻¹; with BMP9, 1.4e+07 M⁻¹ s⁻¹. Further, the results for the kon with Activin B and in the experiment with Activin A were 5.1e+06 M⁻¹ s⁻¹ and 1.2e+07 M⁻¹ s⁻¹, respectively.

As to BMPRII-Fc homodimer (Fc fusion), the Kd with BMP10 [1] was 0.098 nM; with BMP2, more than 2000 nM; with BMP7, more than 38 nM; with BMP6 [2] it was more than 8.9 nM; with BMP9, 2.1 nM; with GDF6, more than 88 nM. The Kd with Activin B was determined as 3.8 nM; with BMP15, 0.28 nM. Moreover, the koff with BMP10 [1] amounted to 0.0025 s⁻¹; with BMP9, 0.026 s⁻¹; with Activin B, 0.075 s⁻¹; in the experiment with BMP15, 0.0028 s⁻¹. The kon with BMP10 [1] stood at 2.6e+07 M⁻¹ s⁻¹; with BMP9, 1.2e+07 M⁻¹ s⁻¹; with Activin B it was 2e+07 M⁻¹ s⁻¹; with BMP15, 9.9e+06 M⁻¹ s⁻¹.

B1: single-arm ActRIIB-Fc heterodimeric complex (Fc fusion)
chain 1: GRGEAETRECIYYNANWELERTNQSGLERCEGEQDKRLHCYASWRNSSGTIELVKKGCWLDDFNCYDRQECVATEENPQVYFCCCEGNFCNERFTHLPEAGGPEVTYEPPPTAPTGGGTHTCPPCPAPELLGGPSVFLFPPKPKDTLMISRTPEVTCVVVDVSHEDPEVKFNWYVDGVEVHNAKTKPREEQYNSTYRVVSVLTVLHQDWLNGKEYKCKVSNKALPAPIEKTISKAKGQPREPQVYTLPPSRKEMTKNQVSLTCLVKGFYPSDIAVEWESNGQPENNYKTTPPVLKSDGSFFLYSKLTVDKSRWQQGNVFSCSVMHEALHNHYTQKSLSLSPGK
chain 2: SNTKVDKRVTGGGTHTCPPCPAPELLGGPSVFLFPPKPKDTLMISRTPEVTCVVVDVSHEDPEVKFNWYVDGVEVHNAKTKPREEQYNSTYRVVSVLTVLHQDWLNGKEYKCKVSNKALPAPIEKTISKAKGQPREPQVYTLPPSREEMTKNQVSLTCLVKGFYPSDIAVEWESNGQPENNYDTTPPVLDSDGSFFLYSDLTVDKSRWQQGNVFSCSVMHEALHNHYTQKSLSLSPGK
notes: The C-terminal lysine may optionally be removed; also called ActRIIB-Fc:Fc heterodimer; single-arm ActRIIB-Fc:Fc
Turning to B1, the Kd with GDF11 came out at 0.02 nM; in the experiment with BMP10 [3], 0.12 nM; with GDF8, 0.29 nM; with GDF3 it was 12 nM; with Activin B, 0.12 nM; with BMP6 [4] it was 0.69 nM. For the same molecule, binding in the experiment with Activin A was characterised by a dissociation constant (Kd) of 0.099 nM. Besides, the off-rate constant (koff) in the experiment with GDF11 came to 0.00072 s⁻¹; with BMP10 [3], 0.0097 s⁻¹; with GDF8, 0.001 s⁻¹; with GDF3 it was 0.013 s⁻¹; with Activin B, 0.00042 s⁻¹; with BMP6 [4], 0.029 s⁻¹. The same molecule showed a koff in the experiment with Activin A of 0.003 s⁻¹. The association rate constant (kon) with GDF11 came out at 3.6e+07 M⁻¹ s⁻¹; with BMP10 [3] it was 8e+07 M⁻¹ s⁻¹; with GDF8 it was 3.5e+06 M⁻¹ s⁻¹; in the experiment with GDF3, 1.1e+06 M⁻¹ s⁻¹; with Activin B, 3.5e+06 M⁻¹ s⁻¹; with BMP6 [4], 4.2e+07 M⁻¹ s⁻¹. This molecule also displayed a kon with Activin A of 3e+07 M⁻¹ s⁻¹. In addition, the binding result in the experiment with BMP9 is listed as “no binding”.
